Assay results from publication PMC8205527, “Structural basis for the coiled-coil architecture of human CtIP” (Open Biology, 2021).

B1: CtIP-cNTD 31–145 (wild type) (domain or fragment, human, UniProt Q99708 31-145, looked up)
chain: HDREVQGLQVKVTKLKQERILDAQRLEEFFTKNQQLREQQKVLHETIKVLEDRLRAGLCDRCAVTEEHMRKKQQEFENIRQQNLKLITELMNERNTLQEENKKLSEQLQQKIEND
notes: also called wild-type CtIP-cNTD; C-terminal NTD; source: E. coli BL21(DE3) Rosetta 2, purified (Ni-NTA, TEV cleavage, Strep-Tactin, SEC); not shown: His6, N-terminal, cleaved; MBP, N-terminal, cleaved
B2: CtIP-NTD (18–145) (domain or fragment, human, UniProt Q99708 18-145, looked up)
chain: SDFKDLWTKLKECHDREVQGLQVKVTKLKQERILDAQRLEEFFTKNQQLREQQKVLHETIKVLEDRLRAGLCDRCAVTEEHMRKKQQEFENIRQQNLKLITELMNERNTLQEENKKLSEQLQQKIEND
notes: also called CtIP N-terminal domain; source: E. coli BL21(DE3) Rosetta 2, purified (Ni-NTA, TEV cleavage, Strep-Tactin, SEC); not shown: His6, N-terminal, cleaved; MBP, N-terminal, cleaved

Biological target: the molecule itself
Test: SEC-SAXS; Superdex 200 Increase 3.2/300 in 20 mM Tris HCl 8.0, 300 mM NaCl; protein at 3–10 mg/ml; Guinier analysis, P(r), MONSA and BilboMD modelling

Protein	stoichiometry N
B1	2
B2	4
